Data published in PMC4072508, “Genome-Wide Prediction and Validation of Peptides That Bind Human Prosurvival Bcl-2 Proteins” (PLoS Computational Biology, 2014).

T1: Bfl-1, Q16548
T1 chain: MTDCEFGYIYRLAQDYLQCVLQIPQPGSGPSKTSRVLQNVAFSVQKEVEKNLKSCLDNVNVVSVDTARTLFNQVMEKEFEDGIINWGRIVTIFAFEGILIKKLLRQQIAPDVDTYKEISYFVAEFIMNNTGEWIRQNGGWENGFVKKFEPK

T2: Mcl-1, Q07820
T2 chain: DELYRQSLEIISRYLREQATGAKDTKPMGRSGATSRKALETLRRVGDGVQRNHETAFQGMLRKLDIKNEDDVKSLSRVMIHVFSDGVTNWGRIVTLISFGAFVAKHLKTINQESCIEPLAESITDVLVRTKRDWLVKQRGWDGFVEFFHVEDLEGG


target: Bcl-xL, Q07817; assay: peptide SPOT array, c-Myc-tagged receptor at 1 uM or 100 nM, anti-c-Myc-Cy3
Sequence (Q07817 1-209): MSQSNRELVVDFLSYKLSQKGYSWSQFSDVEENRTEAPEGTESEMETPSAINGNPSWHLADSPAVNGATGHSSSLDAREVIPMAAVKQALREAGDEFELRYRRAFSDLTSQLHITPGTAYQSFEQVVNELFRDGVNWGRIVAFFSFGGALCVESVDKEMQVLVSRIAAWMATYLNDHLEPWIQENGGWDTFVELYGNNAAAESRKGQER

SPOT signal as a fraction of Bim BH3's signal on the same receptor and array	Binder
0.67	PYLSKHRADRMRRLLDFLNQESFDLA [SMPD2]
0.06	RAKASSLSEEDKHFADGLETDGTLQK [DSN1]
0.05	VLELHPGAQRDHIGCDEVYYLGEGEA [HEXDC]
0.07	CHGLRELALNYHLLSDELLLALSSEK
0.64	ISSLDLLPYGDRYIAKVLKNSIHEKF [IQGAP2]
0.08	SWFIQSLCAMDKQYADKLEFMHILTR [CASP3]
0.06	MEMYQPSAVVLQCGLDSLSGDRLGCF [HDAC2]
0.17	VHKHSRLAEVLQLGSDILPQYKQEAP [KCNH1]
0.36	YIVLGLRKTTLQKVGKEVAELVGRVG [NLRX1]
0.15	MPYMEAVIHEIQRFGDVIPMSLARRV [CYP2A6]
0.09	SFLSAHCASHLAWFGDSLTSLSQRLQ [TMEM214]
0.49	LWAAQRYGRELRRMLDEFVDSFKKGL [BAD]
0.05	NDDTPWIARTLDNLLDELTAILSAPA [GBP6]
0.07	GYPFNDVCQWFIDRADLIFVVFDPTK [SRL]
0.06	LSIIYTLVEIFQNILDTNLADFTAGL [SLC26A4]
0.11	LLDFFMVSILFSKLGDLLHKLQFVLT [PCNXL2]

SPOT signal as a fraction of Bim BH3's signal on the same receptor and array	Binder
0.06	SQEPLEKAQLLALVGDQLIQSHHYAA [MCF2L2]
0.08	PKKKMTLSEIDQWICDNFPYYREAGS [FOXJ3]
0.58	PAKKMTLSEIDRWICDNFPYYKNAGI
0.06	ADVHGIWSRLFCDFLDEFEVLDTTGE [UBA6]
0.05	LNLLMISVAFLRVIGDQLEKLCDSLL [SLC38A8]
0.36	VLAPVQLGKWLVLFCDEINLPDMDKY [DYNC1H1]
0.55	PALLVHWAKCLQKMLRGLNSSYDQQE [RGPD2]
0.09	SEIMHSFAKCDEVMGDGCLNNEHFEE [IPO5]
0.82	PAKKMTLSEIYRWILDNFPYYKNAGI
0.06	DSLLWKLAGLLRESGDVVLSGCSTLS [STK11IP]
0.04	NNNMDVESRTMATMGDTLASRGLLDA [SEC16A]
0.08	SKEVAILCSFDLGLGDSCFNTQLLSI [MFSD11]
1.03	ISSYMVLAPVDGYLGDRYNRKYLMCG [SPNS1]
0.86	TAGLRPGARLLRVCLQTLPSLRPEAA [SIPA1]
0.06	APGEEDLCAAFNVILDNVGKDWRRLA [FADD]
0.07	CHGLRELALNYHLLLDELLLALSSEK

Target: T1, Bfl-1, Q16548
Assay: as above

SPOT signal as a fraction of Bim BH3's signal on the same receptor and array	Binder
0.53	PYLSKHRADRMRRLLDFLNQESFDLA [SMPD2]
0.03	RAKASSLSEEDKHFADGLETDGTLQK [DSN1]
0.04	VLELHPGAQRDHIGCDEVYYLGEGEA [HEXDC]
0.04	CHGLRELALNYHLLSDELLLALSSEK
0.51	ISSLDLLPYGDRYIAKVLKNSIHEKF [IQGAP2]
0.05	SWFIQSLCAMDKQYADKLEFMHILTR [CASP3]
0.03	MEMYQPSAVVLQCGLDSLSGDRLGCF [HDAC2]
0.09	VHKHSRLAEVLQLGSDILPQYKQEAP [KCNH1]
0.26	YIVLGLRKTTLQKVGKEVAELVGRVG [NLRX1]
0.1	MPYMEAVIHEIQRFGDVIPMSLARRV [CYP2A6]
0.09	SFLSAHCASHLAWFGDSLTSLSQRLQ [TMEM214]
0.42	LWAAQRYGRELRRMLDEFVDSFKKGL [BAD]
0.04	NDDTPWIARTLDNLLDELTAILSAPA [GBP6]
0.05	GYPFNDVCQWFIDRADLIFVVFDPTK [SRL]
0.03	LSIIYTLVEIFQNILDTNLADFTAGL [SLC26A4]
0.06	LLDFFMVSILFSKLGDLLHKLQFVLT [PCNXL2]

SPOT signal as a fraction of Bim BH3's signal on the same receptor and array	Binder
0.04	SQEPLEKAQLLALVGDQLIQSHHYAA [MCF2L2]
0.06	PKKKMTLSEIDQWICDNFPYYREAGS [FOXJ3]
0.26	PAKKMTLSEIDRWICDNFPYYKNAGI
0.04	ADVHGIWSRLFCDFLDEFEVLDTTGE [UBA6]
0.05	LNLLMISVAFLRVIGDQLEKLCDSLL [SLC38A8]
0.08	VLAPVQLGKWLVLFCDEINLPDMDKY [DYNC1H1]
0.39	PALLVHWAKCLQKMLRGLNSSYDQQE [RGPD2]
0.03	SEIMHSFAKCDEVMGDGCLNNEHFEE [IPO5]
0.45	PAKKMTLSEIYRWILDNFPYYKNAGI
0.04	DSLLWKLAGLLRESGDVVLSGCSTLS [STK11IP]
0.06	NNNMDVESRTMATMGDTLASRGLLDA [SEC16A]
0.03	SKEVAILCSFDLGLGDSCFNTQLLSI [MFSD11]
0.68	ISSYMVLAPVDGYLGDRYNRKYLMCG [SPNS1]
0.57	TAGLRPGARLLRVCLQTLPSLRPEAA [SIPA1]
0.04	APGEEDLCAAFNVILDNVGKDWRRLA [FADD]
0.04	CHGLRELALNYHLLLDELLLALSSEK

Target: T2, Mcl-1, Q07820
Assay: as above

SPOT signal as a fraction of Bim BH3's signal on the same receptor and array	Binder
0.52	PYLSKHRADRMRRLLDFLNQESFDLA [SMPD2]
0.04	RAKASSLSEEDKHFADGLETDGTLQK [DSN1]
0.04	VLELHPGAQRDHIGCDEVYYLGEGEA [HEXDC]
0.06	CHGLRELALNYHLLSDELLLALSSEK
0.34	ISSLDLLPYGDRYIAKVLKNSIHEKF [IQGAP2]
0.06	SWFIQSLCAMDKQYADKLEFMHILTR [CASP3]
0.04	MEMYQPSAVVLQCGLDSLSGDRLGCF [HDAC2]
0.21	VHKHSRLAEVLQLGSDILPQYKQEAP [KCNH1]
0.33	YIVLGLRKTTLQKVGKEVAELVGRVG [NLRX1]
0.1	MPYMEAVIHEIQRFGDVIPMSLARRV [CYP2A6]
0.06	SFLSAHCASHLAWFGDSLTSLSQRLQ [TMEM214]
0.41	LWAAQRYGRELRRMLDEFVDSFKKGL [BAD]
0.04	NDDTPWIARTLDNLLDELTAILSAPA [GBP6]
0.06	GYPFNDVCQWFIDRADLIFVVFDPTK [SRL]
0.05	LSIIYTLVEIFQNILDTNLADFTAGL [SLC26A4]
0.09	LLDFFMVSILFSKLGDLLHKLQFVLT [PCNXL2]

SPOT signal as a fraction of Bim BH3's signal on the same receptor and array	Binder
0.04	SQEPLEKAQLLALVGDQLIQSHHYAA [MCF2L2]
0.1	PKKKMTLSEIDQWICDNFPYYREAGS [FOXJ3]
0.29	PAKKMTLSEIDRWICDNFPYYKNAGI
0.05	ADVHGIWSRLFCDFLDEFEVLDTTGE [UBA6]
0.05	LNLLMISVAFLRVIGDQLEKLCDSLL [SLC38A8]
0.05	VLAPVQLGKWLVLFCDEINLPDMDKY [DYNC1H1]
0.45	PALLVHWAKCLQKMLRGLNSSYDQQE [RGPD2]
0.04	SEIMHSFAKCDEVMGDGCLNNEHFEE [IPO5]
0.42	PAKKMTLSEIYRWILDNFPYYKNAGI
0.05	DSLLWKLAGLLRESGDVVLSGCSTLS [STK11IP]
0.03	NNNMDVESRTMATMGDTLASRGLLDA [SEC16A]
0.04	SKEVAILCSFDLGLGDSCFNTQLLSI [MFSD11]
0.69	ISSYMVLAPVDGYLGDRYNRKYLMCG [SPNS1]
0.63	TAGLRPGARLLRVCLQTLPSLRPEAA [SIPA1]
0.06	APGEEDLCAAFNVILDNVGKDWRRLA [FADD]
0.06	CHGLRELALNYHLLLDELLLALSSEK
